Laboratory results as given in US11813311B2, “Treatment and prevention of metabolic diseases” (Singapore Health Services PTE LTD., priority 2019, dated 2023).

Key:
mice with PDL = assay: Pancreatic duct ligation (PDL) model of pancreatic injury; assay type: in vivo, mouse; conditions: 14 days
Text: FIGS. 50A to 50C. Schematic, box plot and images relating to the effect of antagonism of IL-11 mediated signalling in a pancreatic duct ligation (PDL) model of pancreatic injury. (A) Schematic representation of experiment in which pancreatic injury is induced by PDL, and wherein mice are subsequently treated with neutralising anti-IL-11 RA antibody or IgG isotype control antibody. (B) Ligated lobe weight for mice treated with neutralising anti-IL-11 RA antibody or IgG isotype control antibody at 14 days. (C) Representative images of Masson's Trichrome staining of pancreatic tissue from mice treated with neutralising anti-IL-11 RA antibody or IgG isotype control antibody at 14 days.

WDF-fed mice = assay: WDF diet-induced obesity/T2D model (Example 2); assay type: in vivo, mouse
Method: Mice were injected intraperitoneally with 10 mg/kg of an antagonist anti-IL-11 antibody, an antagonist anti-IL-11Rα antibody, or an identical amount of isotype-matched IgG control antibody. The anti-IL-11 and anti-IL-11Rα antibodies bind to mouse IL-11 and mouse IL-11Rα respectively, and inhibit IL-11 mediated signalling.
In order to establish metabolic diseases such as obesity and T2D, mice were fed Western diet (D12079B, Research Diets), supplemented with 15% weight/volume fructose in drinking water (WDF) for 16 weeks, from 12 weeks of age.
Total body fat and lean mass measurements were performed every two weeks by EchoMRI analysis using 4in1 Body Composition Analyzer for Live Small Animals.
For fasting blood glucose measurements, mice were fasted for 6 hours prior to blood collection (via tail snip), and Accu-Chek blood glucose meter was used to obtain fasting glucose measurements.
For intraperitoneal glucose tolerance tests, mice were fasted for 6 h prior to being subjected to ipGTT. Basal fasting glucose was measured by tail snip using Accu-Chek blood glucose meter. 2 g/kg lean mass glucose was injected intraperitoneally, and glucose measurements were taken every 15 min for 2 hours. The area under the curve (AUC) was calculated, and plotted as bar graphs.
For histological analysis, pancreas samples were excised and fixed for 24 hours at RT in 4% neutral-buffered formalin (NBF), and stored in 30% sucrose. 5 μm cryosections were stained with either glucagon or insulin antibodies overnight, and visualized with ImmPRESS HRP IgG polymer detection kit (Vector Laboratories) with ImmPACT DAB Peroxidase Substrate (Vector Laboratories) according to standard protocols, and examined by light microscopy.

ERK = ERK activation in HSCs (Western blot); assay type: cell-based, human; conditions: HSCs, antibody 2 μg/ml
Method: Western blots were carried out on total protein extracts from HSCs and liver tissues. Both cells and frozen tissues were homogenized in radioimmunoprecipitation assay (RIPA) buffer containing protease and phosphatase inhibitors (Thermo Scientifics), followed by centrifugation to clear the lysate. Protein concentrations were determined by Bradford assay (Bio-Rad). Equal amount of protein lysates were separated by SDS-PAGE, transferred to PVDF membrane, and subjected to immunoblot analysis for the indicated primary antibodies. Proteins were visualized using the ECL detection system (Pierce) with the appropriate secondary antibodies.

HSCs = assay: HSC-to-myofibroblast transformation (ACTA2/Collagen I, Operetta); assay type: cell-based, human; conditions: antibody 2 μg/ml, 24 h
Method: Cells (atrial fibroblasts, HSCs and hepatocytes) were grown and maintained at 37° C. and 5% CO2. The growth medium was renewed every 2-3 days and cells were passaged at 80-90% confluence using standard trypsinization techniques. All the experiments were carried out at low cell passage (P1-P2). Cells were serum-starved for 16 h prior to stimulations. Stimulated cells were compared to unstimulated cells that have been grown for the same duration under the same conditions (serum-free media), but without the stimuli.
HSCs (5300, ScienCell) were cultured in stellate cells complete media (5301, ScienCell) on poly-L-lysine-coated plates (2 μg/cm2, 0403, ScienCell).
The Operetta assay was performed mostly as described previously 11 with minor modifications described here: HSCs or hepatocytes were seeded in 96-well black CellCarrier plates (PerkinElmer) at a density of 5×10^3 cells per well. Following experimental conditions, cells were fixed in 4% paraformaldehyde (PFA, 28908, Thermo Fisher), permeabilized with 0.1% Triton X-100 (Sigma) and non-specific sites were blocked with 0.5% BSA and 0.1% Tween-20 in PBS. Cells were incubated overnight (4° C.) with primary antibodies (1:500), followed by incubation with the appropriate AlexaFluor 488 secondary antibodies (1:1000). Rhodamine Phalloidin staining (1:1000, R415, Thermo Fisher) was performed by overnight incubation (4° C.). […]

B1: X209: mouse anti-mouse IL-11Rα IgG (IgG1κ), neutralising; VH SEQ ID NO:24, VL SEQ ID NO:25 (antibody, V domains shown)
VH: QVQLQQPGAELVRPGSSVKLSCKASGYTFTNYWMHWLKQRPVQGLEWIGNIGPSDSKTHYNQKFKDKATLTVDKSSSTAYMQLNSLTSEDSAVYYCARGDYVLFTYWGQGTLVTVSA
VL: DIVLTQSPATLSLSPGERATLSCRASQSISNNLHWYQQKSHEAPRLLIKYASQSISGIPARFSGSGSGTDFTLSFSSLETEDFAVYFCQQSYSWPLTFGQGTKLEIK
modifications: Enx209 VH; Enx209 VL
Mice with PDL
  pancreatic fibrosis: reduced pancreatic fibrosis
  reduction in pancreatic tissue associated with PDL: inhibited
WDF-fed mice; WDF-fed mice vs IgG control
  body weight: significant reduction in body weight
  fasting blood glucose levels: significantly lower
  fat mass: significantly reduced fat mass
  glucose tolerance (ipGTT): significant improvement in glucose tolerance
  lean mass: increase in lean mass
  serum cholesterol levels: significantly lower
  serum triglyceride levels: significantly lower
WDF-fed mice; treated from 8 to 16 weeks or from 16 to 24 weeks
  pancreas weight: remarkable protection against WDF-induced loss of pancreas
WDF-fed mice; treatment from 16 to 24 weeks
  glucagon staining in pancreatic islets: remarkably reduced
  insulin expression in the islets: improved
  islet hyperplasia: remarkably reduced
ERK
  ERK phosphorylation downstream of all factors, including IL-11: abolished
HSCs
  HSC transformation downstream of all factors, including IL-11: abolished
